From patent publication US12673985B2, “Method for the treatment or prophylaxis of cancer by targeting the extracellular portion of keratin 14 (KRT14) residing on cancer cells” (Hudson Institute of Medical Research, priority 2019, dated 2026) come the findings set out here.

In experiment [1] the test system is OVCAR4 ovarian cancer cells. Briefly: Real time cell analysis (RTCA) of proliferation with cisplatin and mAb AN-17. Type of experiment: cell-based, human. On the procedure:
Real time cell analysis (RTCA) was conducted as previously described (PMID: 31443478; Bilandzic et al., Cancers (Basel). 2019; 11(9), E1228) using an xCELLigence RTCA SP 96-well instrument (ACEA Biosciences). Cell lines were synchronized in G0 by overnight incubation in serum-free media and were seeded at 0.5×10^3 cells/0.15 ml/per well. […] Impedance readings were taken every 15 minutes for the experimental duration. mAb AN-17 comprises the heavy chain variable region of SEQ ID NO:3 and the light chain variable region of SEQ ID NO:5, encoded by the nucleic acid sequences of SEQ ID NOs:2 and 4, respectively (see also FIGS. 21 and 22A-22B).

In a further experiment the test system is ovarian cancer cells. Briefly: Real-time in vitro invasion assay (xCELLigence RTCA) with anti-KRT14 antibodies, rK14 and competing peptides. The class given is cell-based, human. To be noted: for restoration of invasive capacity in competition with anti N-terminal KRT14 antibody: competition assay (FIG. 4B, 5B). On the procedure:
xCELLigence Real Time Cell Analyses (RTCA). Real time cell analyses (RTCA) were conducted using an xCELLigence RTCA SP 96-well instrument (ACEA Biosciences). Cell lines were synchronized in Go phase by overnight incubation in serum-free media prior to commencement. For proliferation assays, cells were seeded at 0.5×10^3 cells/0.14 ml/per well (as outlined in the experimental text), and impedance readings taken every 5 minutes for 8 hours (in order to monitor cell adhesion), and subsequently every 15 minutes for 24 hours (to monitor cell proliferation). For invasion assays the upper chamber of a CIM-16 well plate was coated with Matrigel matrix (1:10 in SFM; BD Biosciences, San Jose, CA). Cells were seeded into the upper chamber (as above), with media+/−10% v/v FBS added to the lower chamber. All assays were performed in duplicate or triplicate, with at least three independent experiments.
Using flow cytometry and immunocytochemical staining of intact cells, it was observed that the N terminus of KRT14 is exposed at the cell surface (FIGS. 4A-4B). Consistent with other studies (Papafotiou et al. (2016) supra; Rock et al. (2009) supra), KRT14+ cells represented only a subset of tumor cell population (FIG. 4A). […] Thus, loss of invasive capacity was directly due to binding of the antibody of KRT14. Moreover, this effect is mediated by antibody binding to the N-terminus of KRT14; and the N-terminus was exposed on the external side of cells, accessible to antibody binding.
Antigenicity and hydrophobicity plots were used to examine the first 200 amino acids of KRT14 in silico (FIG. 5A). Five potentially antigenic regions were predicted, and six peptides encompassing to these regions were synthesized for use in further competition assays. Blockade of the N-terminal antibody by peptides #4 and #5 restored invasion (FIG. 5B) and migration (FIG. 5C) of ovarian cancer cells in vitro. […] Based on antibody and peptide competition assays, the surface-exposed region of the KRT14 protein was defined within the amino sequence NH2-[…] (SEQ ID NO:1). […]

With `N.N.[Cl][Pt][Cl]` [cisplatin, reference compound], the “cell viability and proliferation” value in experiment [1] (cisplatin alone at 1.25 μg/ml) is “sub-lethal and cells continued to proliferate”; in experiment [1] (cisplatin alone at 15 μg/ml or 20 μg/ml) it was “complete cell death”.

B1: rK14: exogenously added, full-length recombinant KRT14 protein (protein)
chain: MTTCSRQFTSSSSMKGSCGIGGGIGGGSSRISSVLAGGSCRAPSTYGGGLSVSSSRFSSGGACGLGGGYGGGFSSSSSSFGSGFGGGYGGGLGAGLGGGFGGGFAGGDGLLVGSEKVTMQNLNDRLASYLDKVRALEEANADLEVKIRDWYQRQRPAEIKDYSPYFKTIEDLRNKILTATVDNANVLLQIDNARLAADDFRTKYETELNLRMSVEADINGLRRVLDELTLARADLEMQIESLKEELAYLKKNHEEEMNALRGQVGGDVNVEMDAAPGVDLSRILNEMRDQYEKMAEKNRKDAEEWFFTKTEELNREVATNSELVQSGKSEISELRRTMQNLEIELQSQLSMKASLENSLEETKGRYCMQLAQIQEMIGSVEEQLAQLRCEMEQQNQEYKILLDVKTRLEQEIATYRRLLEGEDAHLSSSQFSSGSQSSRDVTSSSRQIRTKVMDVHDGKVVSTHEQVLRTKN
With B1, in the experiment with ovarian cancer cells (antibody or rK14 added exogenously (FIG. 4B)), the “invasion by ovarian cancer cells in vitro” value is recorded as “had no effect alone”. Further, the “restoration of invasive capacity in competition with anti N-terminal KRT14 antibody” value is “successfully competed with a N-term antibody to restore invasive capacity” with ovarian cancer cells; “could compete for antibody binding, and resorted invasion in vitro” in the experiment with ovarian cancer cells (listed as recombinant KRT14 protein).
